Results: patent publication US20220363623A1, “IMAGING AND THERAPEUTIC COMPOSITIONS” (priority 2019, published 2022)
*1 amine or outer side, *2 acyl side, *3 side chain or, on linkers, in order; H or OH if unused. Where a SMILES comes first, the peptide text is derived from it. Bridges are numbered along the chain shown (N, C = ends). Side-chain parts run from the residue outwards. [ ]: non-standard residue; d: D form. The star is where a group is joined. X1 = O=C([C@@H](Cc1ccccc1)N(c1c(NCCCCCN(O)[*:3])c(=O)c1=O)[*:1])[*:2]; X2 = CC(=O)N(O)CCCCCNC(=O)CCC(=O)N(O)CCCCCN*; Suc = O=C(CCC(=O)[*:2])[*:1]

What was measured:
Parameters in all cases: species or system mice
in vivo [1] = details: male, mouse, total radioactivity; for tissue uptake at 1 h: Tumour Uptake % ID/g 1 h pi; for tissue uptake at 18 h: Tumour Uptake % ID/g 18 h pi
Method: (§1) PET-CT imaging and Biodistribution. Male Balb/c nude mice (age 8.5 weeks) or Male NSG mice (age 12 weeks) were inoculated subcutaneously on the right flank with 6×10^6 LNCap cells in PBS:Matrigel (1:1). Mice were weighed and tumours measured twice weekly using electronic callipers. Tumour volume (mm^3) was calculated as length×width×height×π/6. Mice were assigned for imaging and biodistribution studies (tumour volumes: 85-450 mm3). ^89Zr-DFOSq-PSMA tracers were then administered intravenously by tail vein injection to 6 mice. At 1, 2, 4 and 18 hr post injection three mice were anaesthetised using isoflurane and placed on the imaging bed of a G8 PET/CT scanner (Perkin Elmer). A CT scan was performed and followed immediately by a 10 min static PET scan. PET images were reconstructed using the maximal likelihood and expectation maximization (ML-EM) algorithm. PET Images were analysed using VivoQuant (Invicro) and Tumour SUVmax or Tumour SUVmax/background average (TBR) determined. After imaging at 18 hr mice were euthanised and selected tissues were excised, weighed and counted using a Capintec (Captus 4000e) gamma counter. A separate cohort of 3 mice was harvested at 1 hr post injection for biodistribution analysis as above. The data was analysed using GraphPad Prism 7 and differences between tracers analysed using a t-test.
(§2) ^89Zr Labelled tracers: The ^89Zr radiolabelled PSMA tracers were injected intravenously via tail vein to LNCaP (human PSMA expressing prostate cancer cell line) tumour bearing mice. At 1, 2, 4 and 18 h post-injection the mice were anaesthetised with isoflurane and imaged over 10 min. The representative PET images of mice injected with ^89Zr radiolabelled PSMA tracers at 1 and 18 hr are shown in FIG. 1 and quantitation of the Tumour SUVmax for each tracer is shown in FIG. 2a. […] There was a trend for higher tumour SUVmax for (4) tracer compared to all other tracers at all time points. […] A comparison of tumour uptake values is shown in FIG. 2b and the tissue biodistribution data for the tracers at 1 and 18 hr is summarised in FIG. 3.
(§3) ^68Ga Labelled tracers: Representative PET images of mice injected with ^68Ga(1) and ^68Ga(4) are shown in FIG. 4 and quantitation of the tumour SUVmax is shown in FIG. 5a. […] Tumour uptake of ^68Ga(4) was 1.6 and 1.8 fold higher than ^68Ga(1) at 1 and 2 hr p.i., respectively. This is consistent with the biodistribution results where tumour % ID/g for ^68Ga(4) was higher than ^68Ga(1) at 1 hr (10.8±1.3 vs 6.5±0.4) and at 2.5 hr (8.6±1.0 vs 4.1±0.5) p.i. […] (6.5±0.4% ID/g at 1 hr vs 4.1±0.5% ID/g at 2.5 hr). In contrast, there was no significant change in ^68Ga(4) tumour retention at 1 and 2.5 p.i. (10.8±1.3% ID/g vs […], FIG. 5b).

[2] = system: AR42J (rat pancreatic cancer cell line) tumour; test: in vivo; details: mouse
Method: (§4) PET-CT imaging and Biodistribution of Octreotate/tide Tracers. Female Balb/c nude mice (age 9 weeks) were inoculated subcutaneously on the right flank with 3×10^6 AR42J cells in PBS:Matrigel (1:1). Mice were weighed and tumours measured twice weekly using electronic callipers. Tumour volume (mm^3) was calculated as length^2×width/2. 12 mice were assigned for imaging and biodistribution studies (tumour volumes: 170-550 mm^3). DFOSqTIDE (2.5 MBq) and DFOSqTATE (2.2 MBq) were administered intravenously by tail vein injection to mice on. At 1, 2, 4 and 18 hr post injection three mice were anaesthetised using isoflurane and placed on the imaging bed of a G8 PET/CT scanner (Perkin Elmer). A CT scan was performed which was immediately followed by a 10 min static PET scan. PET images were reconstructed using the maximal likelihood and expectation maximization (ML-EM) algorithm. PET images were analysed using VivoQuant (Invicro) and Tumour SUVmax, Tumour SUVmax/background average (TBR) and Tumour SUVmax/liver average (TLR) determined. After imaging at 18 hr mice were euthanised and selected tissues were excised, weighed and counted using a Capintec (Captus 4000e) gamma counter. A separate cohort of 3 mice was harvested at 1 hr post injection for biodistribution analysis. The data was analysed using GraphPad Prism 7 and differences between tracers analysed using a t-test.
AR42J (rat pancreatic cancer cell line) tumour bearing Balb/c nude mice as described above were injected intravenously via tail vein injection with ^89ZrDFOSqTATE or ^89ZrDFOSqTIDE (2-3 MBq). At 1, 2, 4 and 18 h post-injection the mice were anaesthetised with isoflurane and imaged over 10 min. At 1 hr after injection of DFOSqTIDE and DFOSqTATE, uptake into kidney, tumour and liver was observed. Representative PET images of mice injected with DFOSqTIDE and DFOSqTATE are shown in FIG. 12 and quantitation of the tumour SUVmax for each radiotracer is summarised in FIG. 13a.
^68GaDFOSq-TIDE and ^68GaDFOSq-TATE tracers were injected (2-3 MBq, 1 μg, 0.5 nmol) intravenously via tail vein to AR42J (rat pancreatic cancer cell line) tumour bearing Balb/c nude mice. PET images were acquired at 1 and 2 h post-injection (FIGS. 15a and b). […] Quantification of the uptake in the images using Standard Uptake Value (SUVmax=radioactivity in a tissue/injected activity/BW) confirms the higher uptake for ^68GaDFOSq-TATE (1 h; SUVmax 1.8±0.2, compared to 1.21±0.20, FIG. 15c). The higher tumor uptake of ^68GaDFOSqTATE was also associated with a higher degree of tumor retention at 2 h post injection with only a 5% reduction in SUVmax whereas the tumor SUVmax for ^68GaDFOSqTIDE reduced by 30% ^68GaDFOSqTATE at 2 h post injection. Both tracers clear rapidly from the blood and there is low uptake in bone consistent with stable gallium-68 complexes as well as low uptake in muscle. Both tracers have significant uptake in the kidneys and bladder.

in vivo [3] = details: female, Balb/c nude, mouse, iv, total radioactivity
Method: as §4, with “t-test. The high tumor uptake was confirmed by an ex vivo biodistribution study in the same mouse model where mice were injected with either ^68GaDFOSq-TIDE and ^68GaDFOSq-TATE (2-3 MBq, 1 μg, 0.5 nmol) and then euthanised at either 1 h or 2 h after administration. The amount of injected activity per gram of tissue (% IA/g) in the tumor and major organs was quantified (FIG. 16).” for “t-test.”

[4] = system: LNCaP (human PSMA expressing prostate cancer cell line) tumour; details: mouse, in vivo
Method: as §1, §2, §3

[5] = system: LNCaP (human PSMA expressing prostate cancer cell line) tumour; test: in vivo; details: mouse
Method: as §1, §2, §3

Structure (SMILES) | tissue uptake at 1 h (in vivo [1]; iv) [%ID/g] | tissue uptake at 18 h (in vivo [1]; iv) [%ID/g] | Tumour SUVmax 1 h pi [4] | Tumour SUVmax 18 h pi [4] | Tumour SUVmax Clearance % [4] [%] | further results
CC(=O)N(O)CCCCCNC(=O)CCC(=O)N(O)CCCCCNC(=O)CCC(=O)N(O)CCCCCNc1c(NCCN(CCNC(=O)CCCC(=O)NCc2ccc(C(=O)NCCCCC(NC(=O)NC(CCC(=O)O)C(=O)O)C(=O)O)cc2)CCNC(=O)CCCC(=O)NCc2ccc(C(=O)NCCCCC(NC(=O)NC(CCC(=O)O)C(=O)O)C(=O)O)cc2)c(=O)c1=O (stereo not shown) [(4), DFOSq-bisPhPSMA ligand] | 9.3 | 3.7 | – | – | – | –
CC(=O)N(O)CCCCCNC(=O)CCC(=O)N(O)CCCCCNC(=O)CCC(=O)N(O)CCCCCNc1c(NCCN(CCNC(=O)CCCC(=O)NCCCCC(NC(=O)NC(CCC(=O)O)C(=O)O)C(=O)O)CCNC(=O)CCCC(=O)NCCCCC(NC(=O)NC(CCC(=O)O)C(=O)O)C(=O)O)c(=O)c1=O (single isomer, unassigned) [(3), DFOSq-bisPSMA ligand] | 5.9 | 2.5 | – | – | – | –
CC(=O)N(O)CCCCCNC(=O)CCC(=O)N(O)CCCCCNC(=O)CCC(=O)N(O)CCCCCNc1c(N[C@H](Cc2ccccc2)C(=O)N[C@H]2CSSC[C@@H](C(=O)N[C@H](C(=O)O)[C@@H](C)O)NC(=O)[C@H]([C@@H](C)O)NC(=O)[C@H](CCCCN)NC(=O)[C@@H](Cc3c[nH]c4ccccc34)NC(=O)[C@H](Cc3ccc(O)cc3)NC2=O)c(=O)c1=O [DFOSqTATE] (H-[X1]([Suc-X2])CY[dW]KTCT-OH; disulfide 2-7) | – | – | – | – | – | Tumour SUVmax Clearance % [2]: 58%; tissue uptake at 1 h (in vivo [3]; Tumour Uptake % ID/g 1 h pi): 10.4 ± 0.5 %ID/g; tissue uptake at 18 h (in vivo [3]; Tumour Uptake % ID/g 18 h pi): 4.9 ± 0.8 %ID/g
CC(=O)N(O)CCCCCNC(=O)CCC(=O)N(O)CCCCCNC(=O)CCC(=O)N(O)CCCCCNc1c(NCc2ccc(C(=O)NCCCCC(NC(=O)NC(CCC(=O)O)C(=O)O)C(=O)O)cc2)c(=O)c1=O (single isomer, unassigned) [^68Ga(1), metal not drawn] | – | – | 1.0 ± 0.02 | – | – | Gall bladder uptake in PET images [4]: high uptake; Gut uptake in PET images [4]: high uptake; Kidney uptake in PET images [4]: high uptake; LNCap tumour uptake in PET images [4]: moderate uptake; Tumour SUVmax 2 h pi [4]: 0.8 ± 0.05; tissue uptake at 1 h (in vivo [1]): 6.5 ± 0.38 %ID/g; tissue uptake at 2.5 h (in vivo [1]; Tumour Uptake % ID/g 2.5 h pi): 4.1 ± 0.51 %ID/g; Tumour Uptake % ID/g 1 h pi [5]: 6.5±0.4 % ID/g; Tumour Uptake % ID/g 2.5 h pi [5]: 4.1±0.5 % ID/g
CC(=O)N(O)CCCCCNC(=O)CCC(=O)N(O)CCCCCNC(=O)CCC(=O)N(O)CCCCCNc1c(NCCNC(=O)CN(CCN(CC(=O)O)CC(=O)Nc2ccc(C(=O)NCCCCC(NC(=O)NC(CCC(=O)O)C(=O)O)C(=O)O)cc2)CC(=O)O)c(=O)c1=O (stereo not shown) [(2), DFOSq-EDTA-PSMA ligand] | 3.2 | 1 | – | – | – | –
CC(=O)N(O)CCCCCNC(=O)CCC(=O)N(O)CCCCCNC(=O)CCC(=O)N(O)CCCCCNc1c(NCCN(CCNC(=O)CCCC(=O)NCc2ccc(C(=O)NCCCCC(NC(=O)NC(CCC(=O)O)C(=O)O)C(=O)O)cc2)CCNC(=O)CCCC(=O)NCc2ccc(C(=O)NCCCCC(NC(=O)NC(CCC(=O)O)C(=O)O)C(=O)O)cc2)c(=O)c1=O (single isomer, unassigned) [^89Zr(4), metal not drawn] | 9.3 ± 0.33 | 3.7 ± 1.07 | 3.2 ± 0.30 | 1.5 ± 0.18 | 54 | –
CC(=O)N(O)CCCCCNC(=O)CCC(=O)N(O)CCCCCNC(=O)CCC(=O)N(O)CCCCCNc1c(NCCNC(=O)CN(CCN(CC(=O)O)CC(=O)Nc2ccc(C(=O)NCCCCC(NC(=O)NC(CCC(=O)O)C(=O)O)C(=O)O)cc2)CC(=O)O)c(=O)c1=O (stereo not shown) [^89Zr(2), metal not drawn] | – | – | 0.7 ± 0.03 | 0.3 ± 0.01 | 57 | Tumour Uptake % ID/g 1 h pi ([5]; male, iv, 1 h): 3.2 ± 0.72 % ID/g; Tumour Uptake % ID/g 18 h pi ([5]; male, iv, 18 h): 0.9 ± 0.09 % ID/g
CC(=O)N(O)CCCCCNC(=O)CCC(=O)N(O)CCCCCNC(=O)CCC(=O)N(O)CCCCCNc1c(NCc2ccc(C(=O)NCCCCC(NC(=O)NC(CCC(=O)O)C(=O)O)C(=O)O)cc2)c(=O)c1=O (single isomer, unassigned) [^89Zr(1), metal not drawn] | 4.6 ± 0.45 | 1.7 ± 0.18 | 1.1 ± 0.12 | 0.4 ± 0.05 | 63 | –
